Test results published in paper PMC314469, “Protein Interaction Networks by Proteome Peptide Scanning” (PLoS Biology, 2004).

Molecular target: T1, Yhr016c SH3 (YSC84_YEAST), P32793
T1 chain: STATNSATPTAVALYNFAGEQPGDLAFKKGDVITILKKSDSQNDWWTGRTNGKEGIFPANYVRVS
Experiment: SPOT array

First: LIPPLHPLKKQHPK [YIL089W 44-57]
Second: LGEPFDPNKHEATF [YOR232W 175-188]
The normalised SPOT signal, Boehringer light units (BLU); mean over the file's lines of this peptide of the first is higher: 366 for the first, 161 for the second.

Compared with LIMPIYPYRLVSTI [YIL173W 525-538], LENPSTPDKTEEDW [YKL010C 724-737] is lower in normalised SPOT signal, Boehringer light units (BLU); mean over the file's lines of this peptide: 973 for the first, 68.6 for the second.

Compared with LMPPDSPPRMTENT [YBR275C 1790-1803], LLAPNSPLKNTKSV [YOR124C 391-404] is lower in normalised SPOT signal, Boehringer light units (BLU); mean over the file's lines of this peptide: 485 for the first, 53.5 for the second.

Going from LHVPRNPSKSRRGS [YLR310C 161-174] to LDYPKAPIKLTMKS [YIL161W 160-173], the normalised SPOT signal, Boehringer light units (BLU); mean over the file's lines of this peptide rises from 211 to 344.

Compared with LKRPILPSKNMDHT [YOR191W 344-357], LLKPETPSKRLVIR [YGL216W 249-262] is lower in normalised SPOT signal, Boehringer light units (BLU); mean over the file's lines of this peptide: 251 for the first, 59.7 for the second.

Binder LLPPTDPFRRKHEQ [YHR148W 63-76] has a normalised SPOT signal, Boehringer light units (BLU); mean over the file's lines of this peptide of 224.

Molecular target: T2, Yfr024 SH3 (LSB3_YEAST), P43603
T2 chain: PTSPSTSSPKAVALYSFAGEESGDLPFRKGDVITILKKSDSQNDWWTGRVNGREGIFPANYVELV
Experiment: SPOT array

Going from LIPPLHPLKKQHPK [YIL089W 44-57] to LGEPFDPNKHEATF [YOR232W 175-188], the normalised SPOT signal, Boehringer light units (BLU); mean over the file's lines of this peptide falls from 1420 to 68.3.

Compared with LIMPIYPYRLVSTI [YIL173W 525-538], LENPSTPDKTEEDW [YKL010C 724-737] is lower in normalised SPOT signal, Boehringer light units (BLU); mean over the file's lines of this peptide: 3060 for the first, 61 for the second.

Compared with LMPPDSPPRMTENT [YBR275C 1790-1803], LLAPNSPLKNTKSV [YOR124C 391-404] is lower in normalised SPOT signal, Boehringer light units (BLU); mean over the file's lines of this peptide: 1520 for the first, 94.9 for the second.

Going from LHVPRNPSKSRRGS [YLR310C 161-174] to LDYPKAPIKLTMKS [YIL161W 160-173], the normalised SPOT signal, Boehringer light units (BLU); mean over the file's lines of this peptide falls from 1260 to 538.

First: LKRPILPSKNMDHT [YOR191W 344-357]
Second: LLKPETPSKRLVIR [YGL216W 249-262]
The normalised SPOT signal, Boehringer light units (BLU); mean over the file's lines of this peptide of the first is higher: 6130 for the first, 1480 for the second.

Binder LLPPTDPFRRKHEQ [YHR148W 63-76] has a normalised SPOT signal, Boehringer light units (BLU); mean over the file's lines of this peptide of 314.

Molecular target: T3, Boi1 SH3 (BOI1_YEAST), P38041
T3 chain: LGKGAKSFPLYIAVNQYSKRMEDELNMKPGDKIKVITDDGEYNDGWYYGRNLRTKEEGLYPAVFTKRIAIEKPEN
Experiment: SPOT array

Going from LIPPLHPLKKQHPK [YIL089W 44-57] to LGEPFDPNKHEATF [YOR232W 175-188], the normalised SPOT signal, Boehringer light units (BLU); mean over the file's lines of this peptide rises from 10.8 to 98.8.

Compared with LIMPIYPYRLVSTI [YIL173W 525-538], LENPSTPDKTEEDW [YKL010C 724-737] is lower in normalised SPOT signal, Boehringer light units (BLU); mean over the file's lines of this peptide: 95.2 for the first, 50.1 for the second.

First: LMPPDSPPRMTENT [YBR275C 1790-1803]
Second: LLAPNSPLKNTKSV [YOR124C 391-404]
The normalised SPOT signal, Boehringer light units (BLU); mean over the file's lines of this peptide of the first is lower: 47.3 for the first, 57.9 for the second.

Compared with LHVPRNPSKSRRGS [YLR310C 161-174], LDYPKAPIKLTMKS [YIL161W 160-173] is lower in normalised SPOT signal, Boehringer light units (BLU); mean over the file's lines of this peptide: 153 for the first, 48 for the second.

First: LKRPILPSKNMDHT [YOR191W 344-357]
Second: LLKPETPSKRLVIR [YGL216W 249-262]
The normalised SPOT signal, Boehringer light units (BLU); mean over the file's lines of this peptide of the first is lower: 133 for the first, 229 for the second.

In the case of LLPPTDPFRRKHEQ [YHR148W 63-76], the normalised SPOT signal, Boehringer light units (BLU); mean over the file's lines of this peptide is reported as 56.5.

Molecular target: T4, Boi2 SH3 (BOI2_YEAST), P39969
T4 chain: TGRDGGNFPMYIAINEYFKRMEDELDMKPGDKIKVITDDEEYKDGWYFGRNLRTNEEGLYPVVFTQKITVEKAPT
Experiment: SPOT array

Compared with LIPPLHPLKKQHPK [YIL089W 44-57], LGEPFDPNKHEATF [YOR232W 175-188] is higher in normalised SPOT signal, Boehringer light units (BLU); mean over the file's lines of this peptide: 17.8 for the first, 73.9 for the second.

First: LIMPIYPYRLVSTI [YIL173W 525-538]
Second: LENPSTPDKTEEDW [YKL010C 724-737]
The normalised SPOT signal, Boehringer light units (BLU); mean over the file's lines of this peptide of the first is higher: 560 for the first, 52.1 for the second.

First: LMPPDSPPRMTENT [YBR275C 1790-1803]
Second: LLAPNSPLKNTKSV [YOR124C 391-404]
The normalised SPOT signal, Boehringer light units (BLU); mean over the file's lines of this peptide of the first is higher: 162 for the first, 10.2 for the second.

First: LHVPRNPSKSRRGS [YLR310C 161-174]
Second: LDYPKAPIKLTMKS [YIL161W 160-173]
The normalised SPOT signal, Boehringer light units (BLU); mean over the file's lines of this peptide of the first is higher: 234 for the first, 12.9 for the second.

Compared with LKRPILPSKNMDHT [YOR191W 344-357], LLKPETPSKRLVIR [YGL216W 249-262] is lower in normalised SPOT signal, Boehringer light units (BLU); mean over the file's lines of this peptide: 45.2 for the first, 13.3 for the second.

In the case of LLPPTDPFRRKHEQ [YHR148W 63-76], the normalised SPOT signal, Boehringer light units (BLU); mean over the file's lines of this peptide is reported as 15.

Molecular target: T5, Rvs167 SH3 (RV167_YEAST), P39743
T5 chain: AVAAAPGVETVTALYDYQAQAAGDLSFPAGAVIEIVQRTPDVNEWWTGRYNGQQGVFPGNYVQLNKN
Experiment: SPOT array

Compared with LIPPLHPLKKQHPK [YIL089W 44-57], LGEPFDPNKHEATF [YOR232W 175-188] is lower in normalised SPOT signal, Boehringer light units (BLU); mean over the file's lines of this peptide: 35.3 for the first, 10.7 for the second.

Compared with LIMPIYPYRLVSTI [YIL173W 525-538], LENPSTPDKTEEDW [YKL010C 724-737] is lower in normalised SPOT signal, Boehringer light units (BLU); mean over the file's lines of this peptide: 189 for the first, 27.7 for the second.

Going from LMPPDSPPRMTENT [YBR275C 1790-1803] to LLAPNSPLKNTKSV [YOR124C 391-404], the normalised SPOT signal, Boehringer light units (BLU); mean over the file's lines of this peptide rises from 1.2 to 26.4.

Going from LHVPRNPSKSRRGS [YLR310C 161-174] to LDYPKAPIKLTMKS [YIL161W 160-173], the normalised SPOT signal, Boehringer light units (BLU); mean over the file's lines of this peptide falls from 129 to 5.9.

Compared with LKRPILPSKNMDHT [YOR191W 344-357], LLKPETPSKRLVIR [YGL216W 249-262] is lower in normalised SPOT signal, Boehringer light units (BLU); mean over the file's lines of this peptide: 141 for the first, 25.7 for the second.

Binder LLPPTDPFRRKHEQ [YHR148W 63-76] has a normalised SPOT signal, Boehringer light units (BLU); mean over the file's lines of this peptide of 49.4.
